Measured values reported in the supplement of paper PMC10567573.

B1: VPS39 (parent)
chain: TTLLKCYLHTNVALVAPLLRLENN
B2: RAD54B (parent)
chain: YVQEKRDGLKRRQQLEEELLRAKI

Variants of: B1
Assay: protein stability index of a GFP-peptide fusion (GPS, HEK-293T) (PSI 1-6); higher = more stable
Conditions: c terminus: a fixed tail appended
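Note: lentivirally expressed fusions sorted by FACS into six bins by GFP to DsRed ratio, PSI derived from sequencing read proportions per bin multiplied by bin number.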

Variant	protein stability index
TTLLKCYLHTNVALVAPLLMLENN	1.5
TTLLKCYLHTNVALVAPLLWLENN	2.11
TTLLKCYLHTNVALVAPLLDLENN	2.23
TTLLKCYLHTNVALVAPLLYLENN	3.2
TTLLKCYLHTNVALVAPLLILENN	3.11
TTLLKCYLHTNVALVAPLLVLENN	2.63
TTLLKCYLHTNVALVAPLLELENN	1.83
TTLLKCYLHTNVALVAPLLKLENN	3.52
TTLLKCYLHTNVALVAPLLGLENN	2.65
TTLLKCYLHTNVALVAPLLTLENN	3.38
TTLLKCYLHTNVALVAPLLPLENN	3.33
TTLLKCYLHTNVALVAPLLRLLNN	2.73
TTLLKCYLHTNVALVAPLLRLWNN	1.4
TTLLKCYLHTNVALVAPLLRLKNN	1.79
TTLLKCYLHTNVALVAPLLRLCNN	1.92
TTLLKCYLHTNVALVAPLLRLINN	1.99
TTLLKCYLHTNVALVAPLLRLMNN	2.31
TTLLKCYLHTNVALVAPLLRLDNN	2.71
TTLLKCYLHTNVALVAPLLRLHNN	2.49
TTLLKCYLHTNVALVAPLLRLRNN	2.64
TTLLKCYLHTNVALVAPLLRLANN	1.66
TTLLKCYLHTNVALVAPLLRLVNN	1.69
TTLLKCYLHTNVALVAPLLRLNNN	2.13
TTLLKCYLHTNVALVAPLLRLSNN	2.82
TTLLKCYLHTNVRLVAPLLRLENN	1.57
TTLLKCYLHTNVPLVAPLLRLENN	2.2

Variant	protein stability index
TTLLKCYLHTNVKLVAPLLRLENN	2.63
TTLLKCYLHTNVDLVAPLLRLENN	1.36
TTLLKCYLHTNVWLVAPLLRLENN	3.55
TTLLKCYLHTNVMLVAPLLRLENN	2.14
TTLLKCYLHTNVVLVAPLLRLENN	3.55
TTLLKCYLHTNNALVAPLLRLENN	2.06
TTLLKCYLHTNTALVAPLLRLENN	3.04
TTLLKCYLHTNQALVAPLLRLENN	1.95
TTLLKCYLHTNSALVAPLLRLENN	3.9
TTLLKCYLHTNVALRAPLLRLENN	1.85
TTLLKCYLHTNVALPAPLLRLENN	3.16
TTLLKCYLHTNVALDAPLLRLENN	1.31
TTLLKCYLHTNVALTAPLLRLENN	2.11
TTLLKCYLHTNVALWAPLLRLENN	2.17
TTLLKCYLHTNVALIAPLLRLENN	2.17
TTLLKCYLHTNVALFAPLLRLENN	2.62
TTLLKCYLHTNVALEAPLLRLENN	1.35
TTLLKCYLHTNVALCAPLLRLENN	1.65
TTLLKCYLHTNVALHAPLLRLENN	2.17
TTLLKCYLHTNVALNAPLLRLENN	2.07
TTLLKCYLHTNVALVAPLLRLENQ	3.12
TTLLKCYLHTNVALVAPLLRLENC	3.2
TTLLKCYLHTNVALVAPLLRLEND	2.7
TTLLKCYLHTNVALVAPLLRLENK	2.08
TTLLKCYLHTNVALVAPLLRLENL	3.19
TTLLKCYLHTNVALVAPLLRLENV	1.5

Variant	protein stability index
TTLLKCYLHTNVALVAPLLRLENI	2.02
TTLLKCYLHTNVALVAPLLRLENH	3.11
TTLLKCYLHTNVALVHPLLRLENN	3.78
TTLLKCYLHTNVALVSPLLRLENN	5.08
TTLLKCYLHTNVALVWPLLRLENN	1.72
TTLLKCYLHTNVALVPPLLRLENN	3.28
TTLLKCYLHTNVALVDPLLRLENN	3.39
TTLLKCYLHTNVALVMPLLRLENN	2.02
TTLLKCYLHTNVALVNPLLRLENN	2.16
TTLLKCYLHTNVALVEPLLRLENN	2.57
TTLLKCYLHTNVALVTPLLRLENN	2.94
TTLLKCYLHTNVALVRPLLRLENN	2.05
TTLLKCYLHTNVALVGPLLRLENN	2.87
TTLLKCYLHTNVALVAPLWRLENN	2.61
TTLLKCYLHTNVALVAPLTRLENN	2.11
TTLLKCYLHTNVALVAPLVRLENN	2.79
TTLLKCYLHTNVALVAPLERLENN	2.02
TTLLKCYLHTNVALVAPLGRLENN	1.97
TTLLKCYLHTNVALVAPLCRLENN	1.35
TTLLKCYLHTNVALVAPLPRLENN	1.52
TTLLKCYLHTNVALVAPLHRLENN	1.7
TTLLKCYLHTNVALVAPLQRLENN	1.46
TTLLKCYLHTNVALVAPLDRLENN	2.11
TTLLKCYLHTNVALVAPTLRLENN	2.51
TTLLKCYLHTNVALVAPKLRLENN	2.08
TTLLKCYLHTNVALVAPYLRLENN	2.16

Variant	protein stability index
TTLLKCYLHTNVALVAPFLRLENN	2.06
TTLLKCYLHTNVALVAPELRLENN	1.55
TTLLKCYLHTNVALVAPPLRLENN	2.27
TTLLKCYLHTNVALVAPMLRLENN	3.28
TTLLKCYLHTNVALVAPLLRLEEN	2.49
TTLLKCYLHTNVALVAPLLRLEVN	2.67
TTLLKCYLHTNVALVAPLLRLELN	2.85
TTLLKCYLHTNVALVAPLLRLEFN	2.11
TTLLKCYLHTNVALVAPLLRLEKN	2.27
TTLLKCYLHTNVALVAPLLRLETN	2.32
TTLLKCYLHTNVALVAPLLRLEIN	2.67
TTLLKCYLHTNVALVAPLLRLEAN	2.22
TTLLKCYLHTNVALVAPLLRLEQN	3.88
TTLLKCYLHTNVALVAPLLRLEMN	2.81
TTLLKCYLHTNVALVAPLLRLECN	2.8
TTLLKCYLHTNVALVAPLLRLEYN	2.99
TTLLKCYLHTNVALVAPLLRLEHN	2.29
TTLLKCYLHTNVALVAPLLRLERN	2.37
TTLLKCYLHTNVALVAPLLRLEWN	1.88
TTLLKCYLHTNVALVAPLLRTENN	2.9
TTLLKCYLHTNVALVAPLLRIENN	2.16
TTLLKCYLHTNVALVAPLLRWENN	2.05
TTLLKCYLHTNVALVAPLLRCENN	3.59
TTLLKCYLHTNVALVAPLLRDENN	1.59
TTLLKCYLHTNVALVAPLLRYENN	1.84
TTLLKCYLHTNVALVAPLLRFENN	3.04

Variant	protein stability index
TTLLKCYLHTNVALVAPLLRGENN	1.6
TTLLKCYLHTNVALVAPLLRHENN	1.51
TTLLKCYLHTNVALVAPLLRMENN	3.38
TTLLKCYLHTNVALVAPLLREENN	2.09
TTLLKCYLHTNVALVAPLLRKENN	1.74
TTLLKCYLHTNVALVAPLLRSENN	1.63
TTLLKCYLHTNVALVAPLLRNENN	3.2
TTLLKCYLHTNVALVAPLLRPENN	2.73
TTLLKCYLHTNVALVAPLLRQENN	2.14
TTLLKCYLHTNVAIVAPLLRLENN	3.28
TTLLKCYLHTNVAVVAPLLRLENN	2.25
TTLLKCYLHTNVATVAPLLRLENN	2.5
TTLLKCYLHTNVANVAPLLRLENN	2.16
TTLLKCYLHTNVAPVAPLLRLENN	1.9
TTLLKCYLHTNVAHVAPLLRLENN	3.13
TTLLKCYLHTNVAEVAPLLRLENN	1.57
TTLLKCYLHTNVAYVAPLLRLENN	3.67
TTLLKCYLHTNVAFVAPLLRLENN	1.55
TTLLKCYLHTNVAAVAPLLRLENN	2.83
TTLLKCYLHTNVAQVAPLLRLENN	1.68
TTLLKCYLHTNVAMVAPLLRLENN	2.27
TTLLKCYLHTNVADVAPLLRLENN	1.5
TTLLKCYLHTNVALVAELLRLENN	4.79
TTLLKCYLHTNVALVALLLRLENN	2.13
TTLLKCYLHTNVALVARLLRLENN	1.38
TTLLKCYLHTNVALVAMLLRLENN	1.17

Variants of: B2
Assay: as above
Conditions: c terminus: a fixed tail appended

Variant	protein stability index
YVCEKRDGLKRRQQLEEELLRAKI	2.01
YVWEKRDGLKRRQQLEEELLRAKI	2.43
YVLEKRDGLKRRQQLEEELLRAKI	1.75
YVKEKRDGLKRRQQLEEELLRAKI	1.81
YVTEKRDGLKRRQQLEEELLRAKI	2.94
YVSEKRDGLKRRQQLEEELLRAKI	1.75
YVNEKRDGLKRRQQLEEELLRAKI	2.05
YVGEKRDGLKRRQQLEEELLRAKI	1.9
YVIEKRDGLKRRQQLEEELLRAKI	1.77
YVEEKRDGLKRRQQLEEELLRAKI	2.35
YVPEKRDGLKRRQQLEEELLRAKI	2.43
YVFEKRDGLKRRQQLEEELLRAKI	1.95
YVAEKRDGLKRRQQLEEELLRAKI	1.98
YVYEKRDGLKRRQQLEEELLRAKI	1.8
YVVEKRDGLKRRQQLEEELLRAKI	2.48
YVREKRDGLKRRQQLEEELLRAKI	1.83
YVMEKRDGLKRRQQLEEELLRAKI	1.64
YVHEKRDGLKRRQQLEEELLRAKI	1.91
YVDEKRDGLKRRQQLEEELLRAKI	2.97
WVQEKRDGLKRRQQLEEELLRAKI	3.92

Variant	protein stability index
IVQEKRDGLKRRQQLEEELLRAKI	3.14
RVQEKRDGLKRRQQLEEELLRAKI	3.77
VVQEKRDGLKRRQQLEEELLRAKI	2.81
TVQEKRDGLKRRQQLEEELLRAKI	3.59
FVQEKRDGLKRRQQLEEELLRAKI	1.79
NVQEKRDGLKRRQQLEEELLRAKI	3.74
AVQEKRDGLKRRQQLEEELLRAKI	3.7
KVQEKRDGLKRRQQLEEELLRAKI	3.74
PVQEKRDGLKRRQQLEEELLRAKI	3.89
MVQEKRDGLKRRQQLEEELLRAKI	3.95
EVQEKRDGLKRRQQLEEELLRAKI	3.68
QVQEKRDGLKRRQQLEEELLRAKI	3.42
HVQEKRDGLKRRQQLEEELLRAKI	3.91
SVQEKRDGLKRRQQLEEELLRAKI	4.37
LVQEKRDGLKRRQQLEEELLRAKI	3.56
CVQEKRDGLKRRQQLEEELLRAKI	3.52
DVQEKRDGLKRRQQLEEELLRAKI	4.4
GVQEKRDGLKRRQQLEEELLRAKI	4.19
YPQEKRDGLKRRQQLEEELLRAKI	3.2
YWQEKRDGLKRRQQLEEELLRAKI	3.35

Variant	protein stability index
YQQEKRDGLKRRQQLEEELLRAKI	3.31
YAQEKRDGLKRRQQLEEELLRAKI	3.72
YSQEKRDGLKRRQQLEEELLRAKI	4.01
YIQEKRDGLKRRQQLEEELLRAKI	2.84
YYQEKRDGLKRRQQLEEELLRAKI	3.56
YMQEKRDGLKRRQQLEEELLRAKI	3.65
YCQEKRDGLKRRQQLEEELLRAKI	3.08
YLQEKRDGLKRRQQLEEELLRAKI	3.41
YTQEKRDGLKRRQQLEEELLRAKI	3.75
YNQEKRDGLKRRQQLEEELLRAKI	3.73
YKQEKRDGLKRRQQLEEELLRAKI	3.82
YDQEKRDGLKRRQQLEEELLRAKI	4.46
YEQEKRDGLKRRQQLEEELLRAKI	4.64
YGQEKRDGLKRRQQLEEELLRAKI	4.12
YFQEKRDGLKRRQQLEEELLRAKI	3.62
YRQEKRDGLKRRQQLEEELLRAKI	3.82
YHQEKRDGLKRRQQLEEELLRAKI	2.55
YVQAKRDGLKRRQQLEEELLRAKI	1.83
